Results reported in the supplement of paper PMC5998384.

Key:
[1] = tested on: HeLa Kyoto; experiment: thermal stability score vs G1/S (z-score of summed log2 fold changes over temperatures); higher = more thermally stable than in G1/S
[2] = tested on: HeLa Kyoto; experiment: solubility change mitosis vs G1/S (difference of NP-40 vs SDS log2 ratios) (log2 ratio difference); higher = more soluble in mitosis
[3] = tested on: HeLa Kyoto; experiment: solubility in G1/S (NP-40 vs SDS abundance) (log2 ratio); higher = more soluble; details: cell cycle stage: G1/S
[4] = tested on: HeLa Kyoto; experiment: melting temperature (median over replicates), in situ; higher = more thermally stable
[5] = cell cycle stage: early G1 (4.5 h after nocodazole release)
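Throughout, for melting temperature (median over replicates), in situ: HeLa Kyoto cells synchronized by double thymidine or nocodazole block, proteins quantified by TMT10plex mass spectrometry, three independent biological replicates.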
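Throughout, for solubility change mitosis vs G1/S (difference of NP-40 vs SDS log2 ratios): synchronized HeLa Kyoto cells (double thymidine block for G1/S, nocodazole release for mitosis), protein amounts in NP-40 versus SDS lysates quantified by mass spectrometry, three biological replicates.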
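Throughout, for solubility in G1/S (NP-40 vs SDS abundance): HeLa Kyoto cells arrested at G1/S by double thymidine block, proteins quantified by TMT10plex mass spectrometry in mild NP-40 versus SDS extracts, three biological replicates.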
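Throughout, for thermal stability score vs G1/S (z-score of summed log2 fold changes over temperatures): synchronized HeLa Kyoto cells, proteins quantified by TMT10plex mass spectrometry, three biological replicates, mitosis taken 0.5 h after nocodazole release, G1/S directly after double thymidine block.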

Sequence | thermal stability score [1, 5] | thermal stability score ([1]; cell cycle stage: mitosis) | solubility change mitosis (log2) [2] | solubility in G1/S (log2) [3] | melting temperature ([4]; cell cycle stage: G1/S) | melting temperature ([4]; cell cycle stage: mitosis)
MSDNQSWNSSGSEEDPETESGPPVERCGVLSKWTNYIHGWQDRWVVLKNNALSYYKSEDETEYGCRGSICLSKAVITPHDFDECRFDISVNDSVWYLRAQDPDHRQQWIDAIEQHKTESGYGSESSLRRHGSMVSLVSGASGYSATSTSSFKKGHSLREKLAEMETFRDILCRQVDTLQKYFDACADAVSKDELQRDKVVEDDEDDFPTTRSDGDFLHSTNGNKEKLFPHVTPKGINGIDFKGEAITFKATTAGILATLSHCIELMVKREDSWQKRLDKETEKKRRTEEAYKNAMTELKKKSHFGGPDYEEGPNSLINEEEFFDAVEAALDRQDKIEEQSQSEKVRLHWPTSLPSGDAFSSVGTHRFVQKPYSRSSSMSSIDLVSASDDVHRFSSQVEEMVQNHMTYSLQDVGGDANWQLVVEEGEMKVYRREVEENGIVLDPLKATHAVKGVTGHEVCNYFWNVDVRNDWETTIENFHVVETLADNAIIIYQTHKRVWPASQRDVLYLSVIRKIPALTENDPETWIVCNFSVDHDSAPLNNRCVRAKINVAMICQTLVSPPEGNQEISRDNILCKITYVANVNPGGWAPASVLRAVAKREYPKFLKRFTSYVQEKTAGKPILF [COL4A3BP] | -0.469 | -0.153 | -0.167 | 0.0115 | 50.2 °C | 50.1 °C
MSDSGEQNYGERESRSASRSGSAHGSGKSARHTPARSRSKEDSRRSRSKSRSRSESRSRSRRSSRRHYTRSRSRSRSHRRSRSRSYSRDYRRRHSHSHSPMSTRRRHVGNRANPDPNCCLGVFGLSLYTTERDLREVFSKYGPIADVSIVYDQQSRRSRGFAFVYFENVDDAKEAKERANGMELDGRRIRVDFSITKRPHTPTPGIYMGRPTYGSSRRRDYYDRGYDRGYDDRDYYSRSYRGGGGGGGGWRAAQDRDQIYRRRSPSPYYSRGGYRSRSRSRSYSPRRY [TRA2B] | -1.69 | -4.47 | 0.613 | -1.17 | 49.9 °C | 49.8 °C
MSDSKCDSQFYSVQVADSTFTVLKRYQQLKPIGSGAQGIVCAAFDTVLGINVAVKKLSRPFQNQTHAKRAYRELVLLKCVNHKNIISLLNVFTPQKTLEEFQDVYLVMELMDANLCQVIHMELDHERMSYLLYQMLCGIKHLHSAGIIHRDLKPSNIVVKSDCTLKILDFGLARTACTNFMMTPYVVTRYYRAPEVILGMGYKENVDIWSVGCIMGELVKGCVIFQGTDHIDQWNKVIEQLGTPSAEFMKKLQPTVRNYVENRPKYPGIKFEELFPDWIFPSESERDKIKTSQARDLLSKMLVIDPDKRISVDEALRHPYITVWYDPAEAEAPPPQIYDAQLEEREHAIEEWKELIYKEVMDWEERSKNGVVKDQPSDAAVSSNATPSQSSSINDISSMSTEQTLASDTDSSLDASTGPLEGCR [MAPK9] | -0.633 | -0.772 | -0.147 | -0.0645 | 50.9 °C | 
MSDSWVPNSASGQDPGGRRRAWAELLAGRVKREKYNPERAQKLKESAVRLLRSHQDLNALLLEVEGPLCKKLSLSKVIDCDSSEAYANHSSSFIGSALQDQASRLGVPVGILSAGMVASSVGQICTAPAETSHPVLLTVEQRKKLSSLLEFAQYLLAHSMFSRLSFCQELWKIQSSLLLEAVWHLHVQGIVSLQELLESHPDMHAVGSWLFRNLCCLCEQMEASCQHADVARAMLSDFVQMFVLRGFQKNSDLRRTVEPEKMPQVTVDVLQRMLIFALDALAAGVQEESSTHKIVRCWFGVFSGHTLGSVISTDPLKRFFSHTLTQILTHSPVLKASDAVQMQREWSFARTHPLLTSLYRRLFVMLSAEELVGHLQEVLETQEVHWQRVLSFVSALVVCFPEAQQLLEDWVARLMAQAFESCQLDSMVTAFLVVRQAALEGPSAFLSYADWFKASFGSTRGYHGCSKKALVFLFTFLSELVPFESPRYLQVHILHPPLVPGKYRSLLTDYISLAKTRLADLKVSIENMGLYEDLSSAGDITEPHSQALQDVEKAIMVFEHTGNIPVTVMEASIFRRPYYVSHFLPALLTPRVLPKVPDSRVAFIESLKRADKIPPSLYSTYCQACSAAEEKPEDAALGVRAEPNSAEEPLGQLTAALGELRASMTDPSQRDVISAQVAVISERLRAVLGHNEDDSSVEISKIQLSINTPRLEPREHMAVDLLLTSFCQNLMAASSVAPPERQGPWAALFVRTMCGRVLPAVLTRLCQLLRHQGPSLSAPHVLGLAALAVHLGESRSALPEVDVGPPAPGAGLPVPALFDSLLTCRTRDSLFFCLKFCTAAISYSLCKFSSQSRDTLCSCLSPGLIKKFQFLMFRLFSEARQPLSEEDVASLSWRPLHLPSADWQRAALSLWTHRTFREVLKEEDVHLTYQDWLHLELEIQPEADALSDTERQDFHQWAIHEHFLPESSASGGCDGDLQAACTILVNALMDFHQSSRSYDHSENSDLVFGGRTGNEDIISRLQEMVADLELQQDLIVPLGHTPSQEHFLFEIFRRRLQALTSGWSVAASLQRQRELLMYKRILLRLPSSVLCGSSFQAEQPITARCEQFFHLVNSEMRNFCSHGGALTQDITAHFFRGLLNACLRSRDPSLMVDFILAKCQTKCPLILTSALVWWPSLEPVLLCRWRRHCQSPLPRELQKLQEGRQFASDFLSPEAASPAPNPDWLSAAALHFAIQQVREENIRKQLKKLDCEREELLVFLFFFSLMGLLSSHLTSNSTTDLPKAFHVCAAILECLEKRKISWLALFQLTESDLRLGRLLLRVAPDQHTRLLPFAFYSLLSYFHEDAAIREEAFLHVAVDMYLKLVQLFVAGDTSTVSPPAGRSLELKGQGNPVELITKARLFLLQLIPRCPKKSFSHVAELLADRGDCDPEVSAALQSRQQAAPDADLSQEPHLF [FANCA] | 0.523 | 1.07 | 0.00288 | -0.182 | 47.9 °C | 48.3 °C
MSDVEENNFEGRESRSQSKSPTGTPARVKSESRSGSRSPSRVSKHSESHSRSRSKSRSRSRRHSHRRYTRSRSHSHSHRRRSRSRSYTPEYRRRRSRSHSPMSNRRRHTGSRANPDPNTCLGVFGLSLYTTERDLREVFSRYGPLSGVNVVYDQRTGRSRGFAFVYFERIDDSKEAMERANGMELDGRRIRVDYSITKRAHTPTPGIYMGRPTHSGGGGGGGGGGGGGGGGRRRDSYYDRGYDRGYDRYEDYDYRYRRRSPSPYYSRYRSRSRSRSYSPRRY [TRA2A] | 1.2 | 1.92 | 0.522 | -1.11 | 49.1 °C | 49.5 °C
MSELEQLRQEAEQLRNQIRDARKACGDSTLTQITAGLDPVGRIQMRTRRTLRGHLAKIYAMHWGTDSRLLVSASQDGKLIIWDSYTTNKVHAIPLRSSWVMTCAYAPSGNFVACGGLDNICSIYSLKTREGNVRVSRELPGHTGYLSCCRFLDDNQIITSSGDTTCALWDIETGQQTVGFAGHSGDVMSLSLAPDGRTFVSGACDASIKLWDVRDSMCRQTFIGHESDINAVAFFPNGYAFTTGSDDATCRLFDLRADQELLMYSHDNIICGITSVAFSRSGRLLLAGYDDFNCNIWDAMKGDRAGVLAGHDNRVSCLGVTDDGMAVATGSWDSFLKIWN [GNB2] | -0.768 | -0.878 | -0.136 | -0.771 | 55.6 °C | 55.5 °C
MSEPIRVLVTGAAGQIAYSLLYSIGNGSVFGKDQPIILVLLDITPMMGVLDGVLMELQDCALPLLKDVIATDKEDVAFKDLDVAILVGSMPRREGMERKDLLKANVKIFKSQGAALDKYAKKSVKVIVVGNPANTNCLTASKSAPSIPKENFSCLTRLDHNRAKAQIALKLGVTANDVKNVIIWGNHSSTQYPDVNHAKVKLQGKEVGVYEALKDDSWLKGEFVTTVQQRGAAVIKARKLSSAMSAAKAICDHVRDIWFGTPEGEFVSMGVISDGNSYGVPDDLLYSFPVVIKNKTWKFVEGLPINDFSREKMDLTAKELTEEKESAFEFLSSA [MDH1] | -0.848 | 0.036 | -0.111 | 0.43 | 57.2 °C | 56.8 °C
MSEQSICQARASVMVYDDTSKKWVPIKPGQQGFSRINIYHNTASNTFRVVGVKLQDQQVVINYSIVKGLKYNQATPTFHQWRDARQVYGLNFASKEEATTFSNAMLFALNIMNSQEGGPSSQRQVQNGPSPDEMDIQRRQVMEQHQQQRQESLERRTSATGPILPPGHPSSAASAPVSCSGPPPPPPPPVPPPPTGATPPPPPPLPAGGAQGSSHDESSMSGLAAAIAGAKLRRVQRPEDASGGSSPSGTSKSDANRASSGGGGGGLMEEMNKLLAKRRKAASQSDKPAEKKEDESQMEDPSTSPSPGTRAASQPPNSSEAGRKPWERSNSVEKPVSSILSRTPSVAKSPEAKSPLQSQPHSRMKPAGSVNDMALDAFDLDRMKQEILEEVVRELHKVKEEIIDAIRQELSGISTT [EVL] | -0.133 | -0.273 | -0.143 | 0.231 | 50 °C | 
MSESGHSQPGLYGIERRRRWKEPGSGGPQNLSGPGGRERDYIAPWERERRDASEETSTSVMQKTPIILSKPPAERSKQPPPPTAPAAPPAPAPLEKPIVLMKPREEGKGPVAVTGASTPEGTAPPPPAAPAPPKGEKEGQRPTQPVYQIQNRGMGTAAPAAMDPVVGQAKLLPPERMKHSIKLVDDQMNWCDSAIEYLLDQTDVLVVGVLGLQGTGKSMVMSLLSANTPEEDQRTYVFRAQSAEMKERGGNQTSGIDFFITQERIVFLDTQPILSPSILDHLINNDRKLPPEYNLPHTYVEMQSLQIAAFLFTVCHVVIVVQDWFTDLSLYRFLQTAEMVKPSTPSPSHESSSSSGSDEGTEYYPHLVFLQNKARREDFCPRKLRQMHLMIDQLMAHSHLRYKGTLSMLQCNVFPGLPPDFLDSEVNLFLVPFMDSEAESENPPRAGPGSSPLFSLLPGYRGHPSFQSLVSKLRSQVMSMARPQLSHTILTEKNWFHYAARIWDGVRKSSALAEYSRLLA [SMG9] | -0.759 | -0.639 | -0.178 | 0.242 | 49 °C | 49.8 °C
MSESLVVCDVAEDLVEKLRKFRFRKETNNAAIIMKIDKDKRLVVLDEELEGISPDELKDELPERQPRFIVYSYKYQHDDGRVSYPLCFIFSSPVGCKPEQQMMYAGSKNKLVQTAELTKVFEIRNTEDLTEEWLREKLGFFH [GMFB] | -2.8 | -3.58 | 0.123 | 0.3 | 55.4 °C | 55.6 °C
MSETVICSSRATVMLYDDGNKRWLPAGTGPQAFSRVQIYHNPTANSFRVVGRKMQPDQQVVINCAIVRGVKYNQATPNFHQWRDARQVWGLNFGSKEDAAQFAAGMASALEALEGGGPPPPPALPTWSVPNGPSPEEVEQQKRQQPGPSEHIERRVSNAGGPPAPPAGGPPPPPGPPPPPGPPPPPGLPPSGVPAAAHGAGGGPPPAPPLPAAQGPGGGGAGAPGLAAAIAGAKLRKVSKQEEASGGPTAPKAESGRSGGGGLMEEMNAMLARRRKATQVGEKTPKDESANQEEPEARVPAQSESVRRPWEKNSTTLPRMKSSSSVTTSETQPCTPSSSDYSDLQRVKQELLEEVKKELQKVKEEIIEAFVQELRKRGSP [VASP] | 0.605 | 2.18 | 0.0947 | 0.466 | 49.7 °C | 50.4 °C
MSEVTKNSLEKILPQLKCHFTWNLFKEDSVSRDLEDRVCNQIEFLNTEFKATMYNLLAYIKHLDGNNEAALECLRQAEELIQQEHADQAEIRSLVTWGNYAWVYYHLGRLSDAQIYVDKVKQTCKKFSNPYSIEYSELDCEEGWTQLKCGRNERAKVCFEKALEEKPNNPEFSSGLAIAMYHLDNHPEKQFSTDVLKQAIELSPDNQYVKVLLGLKLQKMNKEAEGEQFVEEALEKSPCQTDVLRSAAKFYRRKGDLDKAIELFQRVLESTPNNGYLYHQIGCCYKAKVRQMQNTGESEASGNKEMIEALKQYAMDYSNKALEKGLNPLNAYSDLAEFLETECYQTPFNKEVPDAEKQQSHQRYCNLQKYNGKSEDTAVQHGLEGLSISKKSTDKEEIKDQPQNVSENLLPQNAPNYWYLQGLIHKQNGDLLQAAKCYEKELGRLLRDAPSGIGSIFLSASELEDGSEEMGQGAVSSSPRELLSNSEQLN [IFIT3] | -0.282 | 1.1 | -0.0471 | 0.357 | 48.2 °C | 49 °C
